Source: publication PMC8902620, “Oligomerization of DNA replication regulatory protein RADX is essential to maintain replication fork stability” (The Journal of Biological Chemistry, 2022)

B1: mCherry-FLAG-RADX E842K (natural protein, human, UniProt Q6NSI4 1-855, looked up)
chain: MSGESGQPEAGPSHAGLDWPNPERNRAGVPGGVIRRAGSQGPRSWIQKVLEQIMDSPRQCVTPSEVVPVTVLAVQRYLLEDEPRDTVPKPPLYCYDVTISDGVYQEKCYLDPSLNSLVYQNILKVGIQMRISRVSCLYNEKRIGQGILCIDNVHCGETSDSISLETPFRNRAHQEKPERPLRGGKSHYLALWNNEDPYGDIWLTDKQPEEHNFSDTKIISLSHLEMTWTNRRNFPALLVRILHKSKLRYYGKPDKKMIEPYQTFLEVADSSGTVSVIMWNALCPEWYKSLRVGLVLLLQDYSVKKSYPFRIQPVPVDPQIKLISTMEICLNLRDPPTNIIIIPEKQVKPEWRLPKLNHRFTTRSELDDMPENCICDVIGLLVFVGRVQRSKKKENREDFWSYRWIHIADGTSEQPFIVELFSTSQPEIFENIYPMAYFVCTQLKVVRNDNQVPKLLYLTTTNESGVFITGHRGQPYTYDAKVKNFIQWIRTKSDSGEQKNMVIGGYYPYPPVPETFSKYSSSIKVESLLTAISEVRKEIEDLQYREQKRIAIQGIITAIKYIPHSSATESASASETLRNANRPSTSQAARVEIQERNGKRHQDDEPVNSQYFQTTSTNLSLSNKIRILQGPHANPVAVPQPGASVQTKGIKPGMPSIFNRRANINANLQGKARKTISDRWESQLWREKKFGLIDHLHYSRVYPESIPRKFMFEHRKFLSDQYNSQPAKYVPPEGRPPKLDDFKSARSLGHFEVTILGLNHEIAIDVAFLPMYCPEDIRTSQIDTLLTSMNYSCAYPQDTTGNDRLPGPRAVAGDIIKAATELDRVHIVGILDICNLGNNKVKVYLHKIYSPENTS
notes: RADX, human, full length with one point mutation; also called E842K RADX; pTM156; source: HEK293T, purified (anti-FLAG M2 beads, 3x FLAG peptide, Superdex 200)
B2: mCherry-FLAG-RADX NHEI to AAAA (residues 759–762) (natural protein, human, UniProt Q6NSI4 1-855, looked up)
chain: MSGESGQPEAGPSHAGLDWPNPERNRAGVPGGVIRRAGSQGPRSWIQKVLEQIMDSPRQCVTPSEVVPVTVLAVQRYLLEDEPRDTVPKPPLYCYDVTISDGVYQEKCYLDPSLNSLVYQNILKVGIQMRISRVSCLYNEKRIGQGILCIDNVHCGETSDSISLETPFRNRAHQEKPERPLRGGKSHYLALWNNEDPYGDIWLTDKQPEEHNFSDTKIISLSHLEMTWTNRRNFPALLVRILHKSKLRYYGKPDKKMIEPYQTFLEVADSSGTVSVIMWNALCPEWYKSLRVGLVLLLQDYSVKKSYPFRIQPVPVDPQIKLISTMEICLNLRDPPTNIIIIPEKQVKPEWRLPKLNHRFTTRSELDDMPENCICDVIGLLVFVGRVQRSKKKENREDFWSYRWIHIADGTSEQPFIVELFSTSQPEIFENIYPMAYFVCTQLKVVRNDNQVPKLLYLTTTNESGVFITGHRGQPYTYDAKVKNFIQWIRTKSDSGEQKNMVIGGYYPYPPVPETFSKYSSSIKVESLLTAISEVRKEIEDLQYREQKRIAIQGIITAIKYIPHSSATESASASETLRNANRPSTSQAARVEIQERNGKRHQDDEPVNSQYFQTTSTNLSLSNKIRILQGPHANPVAVPQPGASVQTKGIKPGMPSIFNRRANINANLQGKARKTISDRWESQLWREKKFGLIDHLHYSRVYPESIPRKFMFEHRKFLSDQYNSQPAKYVPPEGRPPKLDDFKSARSLGHFEVTILGLAAAAAIDVAFLPMYCPEDIRTSQIDTLLTSMNYSCAYPQDTTGNDRLPGPRAVAGDIIKAATELDRVHIVGILDICNLGNNKVEVYLHKIYSPENTS
notes: also called pTM109; source: HEK293T, purified (anti-FLAG M2 beads, 3x FLAG peptide, Superdex 200)
B3: mCherry-FLAG-RADX KIY to DIA (residues 847–849) (natural protein, human, UniProt Q6NSI4 1-855, looked up)
chain: MSGESGQPEAGPSHAGLDWPNPERNRAGVPGGVIRRAGSQGPRSWIQKVLEQIMDSPRQCVTPSEVVPVTVLAVQRYLLEDEPRDTVPKPPLYCYDVTISDGVYQEKCYLDPSLNSLVYQNILKVGIQMRISRVSCLYNEKRIGQGILCIDNVHCGETSDSISLETPFRNRAHQEKPERPLRGGKSHYLALWNNEDPYGDIWLTDKQPEEHNFSDTKIISLSHLEMTWTNRRNFPALLVRILHKSKLRYYGKPDKKMIEPYQTFLEVADSSGTVSVIMWNALCPEWYKSLRVGLVLLLQDYSVKKSYPFRIQPVPVDPQIKLISTMEICLNLRDPPTNIIIIPEKQVKPEWRLPKLNHRFTTRSELDDMPENCICDVIGLLVFVGRVQRSKKKENREDFWSYRWIHIADGTSEQPFIVELFSTSQPEIFENIYPMAYFVCTQLKVVRNDNQVPKLLYLTTTNESGVFITGHRGQPYTYDAKVKNFIQWIRTKSDSGEQKNMVIGGYYPYPPVPETFSKYSSSIKVESLLTAISEVRKEIEDLQYREQKRIAIQGIITAIKYIPHSSATESASASETLRNANRPSTSQAARVEIQERNGKRHQDDEPVNSQYFQTTSTNLSLSNKIRILQGPHANPVAVPQPGASVQTKGIKPGMPSIFNRRANINANLQGKARKTISDRWESQLWREKKFGLIDHLHYSRVYPESIPRKFMFEHRKFLSDQYNSQPAKYVPPEGRPPKLDDFKSARSLGHFEVTILGLNHEIAIDVAFLPMYCPEDIRTSQIDTLLTSMNYSCAYPQDTTGNDRLPGPRAVAGDIIKAATELDRVHIVGILDICNLGNNKVEVYLHDIASPENTS
notes: also called pTM114; source: HEK293T, purified (anti-FLAG M2 beads, 3x FLAG peptide, Superdex 200)
B4: mCherry-FLAG-RADX K840D (natural protein, human, UniProt Q6NSI4 1-855, looked up)
chain: MSGESGQPEAGPSHAGLDWPNPERNRAGVPGGVIRRAGSQGPRSWIQKVLEQIMDSPRQCVTPSEVVPVTVLAVQRYLLEDEPRDTVPKPPLYCYDVTISDGVYQEKCYLDPSLNSLVYQNILKVGIQMRISRVSCLYNEKRIGQGILCIDNVHCGETSDSISLETPFRNRAHQEKPERPLRGGKSHYLALWNNEDPYGDIWLTDKQPEEHNFSDTKIISLSHLEMTWTNRRNFPALLVRILHKSKLRYYGKPDKKMIEPYQTFLEVADSSGTVSVIMWNALCPEWYKSLRVGLVLLLQDYSVKKSYPFRIQPVPVDPQIKLISTMEICLNLRDPPTNIIIIPEKQVKPEWRLPKLNHRFTTRSELDDMPENCICDVIGLLVFVGRVQRSKKKENREDFWSYRWIHIADGTSEQPFIVELFSTSQPEIFENIYPMAYFVCTQLKVVRNDNQVPKLLYLTTTNESGVFITGHRGQPYTYDAKVKNFIQWIRTKSDSGEQKNMVIGGYYPYPPVPETFSKYSSSIKVESLLTAISEVRKEIEDLQYREQKRIAIQGIITAIKYIPHSSATESASASETLRNANRPSTSQAARVEIQERNGKRHQDDEPVNSQYFQTTSTNLSLSNKIRILQGPHANPVAVPQPGASVQTKGIKPGMPSIFNRRANINANLQGKARKTISDRWESQLWREKKFGLIDHLHYSRVYPESIPRKFMFEHRKFLSDQYNSQPAKYVPPEGRPPKLDDFKSARSLGHFEVTILGLNHEIAIDVAFLPMYCPEDIRTSQIDTLLTSMNYSCAYPQDTTGNDRLPGPRAVAGDIIKAATELDRVHIVGILDICNLGNNDVEVYLHKIYSPENTS
notes: RADX, human, full length with one point mutation; also called pTM155; source: HEK293T, purified (anti-FLAG M2 beads, 3x FLAG peptide, Superdex 200)
B5: mCherry-FLAG-RADX K847D (natural protein, human, UniProt Q6NSI4 1-855, looked up)
chain: MSGESGQPEAGPSHAGLDWPNPERNRAGVPGGVIRRAGSQGPRSWIQKVLEQIMDSPRQCVTPSEVVPVTVLAVQRYLLEDEPRDTVPKPPLYCYDVTISDGVYQEKCYLDPSLNSLVYQNILKVGIQMRISRVSCLYNEKRIGQGILCIDNVHCGETSDSISLETPFRNRAHQEKPERPLRGGKSHYLALWNNEDPYGDIWLTDKQPEEHNFSDTKIISLSHLEMTWTNRRNFPALLVRILHKSKLRYYGKPDKKMIEPYQTFLEVADSSGTVSVIMWNALCPEWYKSLRVGLVLLLQDYSVKKSYPFRIQPVPVDPQIKLISTMEICLNLRDPPTNIIIIPEKQVKPEWRLPKLNHRFTTRSELDDMPENCICDVIGLLVFVGRVQRSKKKENREDFWSYRWIHIADGTSEQPFIVELFSTSQPEIFENIYPMAYFVCTQLKVVRNDNQVPKLLYLTTTNESGVFITGHRGQPYTYDAKVKNFIQWIRTKSDSGEQKNMVIGGYYPYPPVPETFSKYSSSIKVESLLTAISEVRKEIEDLQYREQKRIAIQGIITAIKYIPHSSATESASASETLRNANRPSTSQAARVEIQERNGKRHQDDEPVNSQYFQTTSTNLSLSNKIRILQGPHANPVAVPQPGASVQTKGIKPGMPSIFNRRANINANLQGKARKTISDRWESQLWREKKFGLIDHLHYSRVYPESIPRKFMFEHRKFLSDQYNSQPAKYVPPEGRPPKLDDFKSARSLGHFEVTILGLNHEIAIDVAFLPMYCPEDIRTSQIDTLLTSMNYSCAYPQDTTGNDRLPGPRAVAGDIIKAATELDRVHIVGILDICNLGNNKVEVYLHDIYSPENTS
notes: RADX, human, full length with one point mutation; also called K847D RADX; pTM157; source: HEK293T, purified (anti-FLAG M2 beads, 3x FLAG peptide, Superdex 200)
B6: mCherry-FLAG-RADX KVEV to DVKV (residues 840–843) (natural protein, human, UniProt Q6NSI4 1-855, looked up)
chain: MSGESGQPEAGPSHAGLDWPNPERNRAGVPGGVIRRAGSQGPRSWIQKVLEQIMDSPRQCVTPSEVVPVTVLAVQRYLLEDEPRDTVPKPPLYCYDVTISDGVYQEKCYLDPSLNSLVYQNILKVGIQMRISRVSCLYNEKRIGQGILCIDNVHCGETSDSISLETPFRNRAHQEKPERPLRGGKSHYLALWNNEDPYGDIWLTDKQPEEHNFSDTKIISLSHLEMTWTNRRNFPALLVRILHKSKLRYYGKPDKKMIEPYQTFLEVADSSGTVSVIMWNALCPEWYKSLRVGLVLLLQDYSVKKSYPFRIQPVPVDPQIKLISTMEICLNLRDPPTNIIIIPEKQVKPEWRLPKLNHRFTTRSELDDMPENCICDVIGLLVFVGRVQRSKKKENREDFWSYRWIHIADGTSEQPFIVELFSTSQPEIFENIYPMAYFVCTQLKVVRNDNQVPKLLYLTTTNESGVFITGHRGQPYTYDAKVKNFIQWIRTKSDSGEQKNMVIGGYYPYPPVPETFSKYSSSIKVESLLTAISEVRKEIEDLQYREQKRIAIQGIITAIKYIPHSSATESASASETLRNANRPSTSQAARVEIQERNGKRHQDDEPVNSQYFQTTSTNLSLSNKIRILQGPHANPVAVPQPGASVQTKGIKPGMPSIFNRRANINANLQGKARKTISDRWESQLWREKKFGLIDHLHYSRVYPESIPRKFMFEHRKFLSDQYNSQPAKYVPPEGRPPKLDDFKSARSLGHFEVTILGLNHEIAIDVAFLPMYCPEDIRTSQIDTLLTSMNYSCAYPQDTTGNDRLPGPRAVAGDIIKAATELDRVHIVGILDICNLGNNDVKVYLHKIYSPENTS
notes: The results print residues 840 to 844, the methods 840–843; also called pTM113; source: HEK293T, purified (anti-FLAG M2 beads, 3x FLAG peptide, Superdex 200)

Each binder was assayed against T1, full-length RADX, wild type, tagged with mCherry-FLAG or with GFP-HA (human, UniProt Q6NSI4 1-855) (assay: co-IP; purified mCherry-FLAG proteins mixed with purified GFP-HA-RADX and captured on GFP-trap magnetic agarose beads, 1 h at 4 °C; 50 mM Tris pH 7.5, 250 mM NaCl, 10% glycerol, 0.05% NP-40; immunoblot). Settings: both partners purified.
T1 construct: RADX (cxorf57), human, full length; Two differently tagged copies of the same protein, written as one molecule; The GFP-HA copy is the one captured on GFP beads in the tests with purified proteins; The mCherry-FLAG copy is the one fished out there, and is the bait of the FLAG co-IP from lysate; also called mCherry-FLAG-RADX; m-Cherry-FLAG-RADX; source: HEK293T, transfected, in lysate; HEK293T, …

Binding result, binds:
B1
B2
B3
B4
B5
B6
